From publication PMC9823007

Molecular target: NyxB (His tag cleaved, for crystallisation, SEC-MALS and SAXS) (Brucella abortus 2308) (UniProt Q2YPZ9)
Experiment: SEC-MALS

NyxB (His tag cleaved, for crystallisation, SEC-MALS and SAXS) (from UniProt Q2YPZ9 1-134) (natural protein)
stoichiometry N: 2
